Measured values taken from patent US20030099654.

B1: mfgl2 fusion protein (murine fgl2 with six histidine residues followed by an enterokinase site at the N-terminus) (protein)
chain: VEEHNLTEGLEDASAQAACPARLEGSGRCEGSQCPFQLTLPTLTIQLPRQLGSMEEVLKEVRTLKEAVDSLKKSCQDCKLQADDHRDPGGNGGNGAETAEDSRVQELESQVNKLSSELKNAKDQIQGLQGRLETLHLVNMNNIENYVDNKVANLTVVVNSLDGKCSKCPSQEHMQSQPVQHLIYKDCSDHYVLGRRSSGAYRVTPDHRNSSFEVYCDMETMGGGWTVLQARLDGSTNFTREWKDYKAGFGNLEREFWLGNDKIHLLTKSKEMILRIDLEDFNGLTLYALYDQFYVANEFLKYRLHIGNYNGTAGDALRFSRHYNHDLRFFTTPDRDNDRYPSGNCGLYYSSGWWFDSCLSANLNGKYYHQKYKGVRNGIFWGTWPGINQAQPGGYKSSFKQAKMMIRPKNFKP

How the values were obtained:
125I-prothrombin [1] = tested on: 125I-prothrombin
125I-prothrombin [2] = biological target: 125I-prothrombin; remark: listed apart in the source

Molecule | prothrombin cleavage assay (125I-prothrombin, 10% SDS-PAGE, autoradiography); positive control (125I-prothrombin [1]) | one-stage clotting assay (PCA) in coagulation factor-deficient human plasmas (125I-prothrombin [2]) | prothrombin cleavage assay (125I-prothrombin, 10% SDS-PAGE, autoradiography); purified mfgl2 fusion protein (125I-prothrombin [2])
Human Factor Xa | Addition of human factor X in the presence of calcium and factor V produced cleavage products corresponding to known derivatives of prothrombin | – | –
B1 | – | The PCA expressed by recombinant virus infected cells was independent of all factors except 11 (prothrombin) | incubation of 1251-prothrombin with uninfected High 5 cell homogenates or purified protein exhibited no prothrombin cleavage
